The numbers were not newly measured in paper PMC4859759, which cites them from elsewhere.

This data set deals with VEGFR2 IgG domains 3-5 (Homo sapiens) (UniProt P35968).
Chain of VEGFR2 IgG domains 3-5 (Homo sapiens) (P35968 224-548): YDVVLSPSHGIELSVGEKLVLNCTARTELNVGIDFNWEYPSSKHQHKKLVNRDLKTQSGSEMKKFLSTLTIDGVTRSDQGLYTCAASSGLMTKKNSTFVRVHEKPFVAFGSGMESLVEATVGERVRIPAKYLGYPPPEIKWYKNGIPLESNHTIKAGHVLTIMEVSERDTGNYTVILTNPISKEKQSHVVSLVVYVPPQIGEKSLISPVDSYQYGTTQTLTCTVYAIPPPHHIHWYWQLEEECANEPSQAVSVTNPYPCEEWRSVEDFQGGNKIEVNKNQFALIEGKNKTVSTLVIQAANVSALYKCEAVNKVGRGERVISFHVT

Chain of endorepellin (perlecan) LG1/2 (P98160 3687-4103): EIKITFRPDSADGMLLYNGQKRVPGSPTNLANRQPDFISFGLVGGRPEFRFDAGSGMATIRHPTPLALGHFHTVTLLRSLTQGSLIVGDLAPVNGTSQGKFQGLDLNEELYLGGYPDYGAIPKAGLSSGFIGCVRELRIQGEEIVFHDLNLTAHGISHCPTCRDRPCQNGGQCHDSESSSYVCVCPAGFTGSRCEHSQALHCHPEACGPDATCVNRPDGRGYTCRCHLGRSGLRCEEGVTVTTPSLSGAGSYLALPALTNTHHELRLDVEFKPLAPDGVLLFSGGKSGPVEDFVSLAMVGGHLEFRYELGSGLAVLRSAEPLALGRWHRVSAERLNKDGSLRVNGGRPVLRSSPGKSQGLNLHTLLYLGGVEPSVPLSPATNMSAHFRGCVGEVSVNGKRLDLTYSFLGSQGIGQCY

Turning to “endorepellin (perlecan) LG1/2 (from UniProt P98160)”, the Kd was 2.8 nM.

Usually Kd stands for the concentration at which binding is half-saturated.
